Experimental data taken from article PMC11586414.
Values joined by “and” are separate entries in the source; they are usually repeats but may differ in a detail not shown here. Equal entries are not always repeated.

Columns and labels:
[1] = target: HEPN^Lpg WT (HEPN toxin of the Legionella pneumophila HEPN–MNT module) (Legionella pneumophila Philadelphia 1) (UniProt Q5ZRG2); assay: crystal structure
[2] = target: HEPN^Lpg WT (HEPN toxin of the Legionella pneumophila HEPN–MNT module) (Legionella pneumophila Philadelphia 1) (UniProt Q5ZRG2); assay: AUC

HEPN^Lpg WT (HEPN toxin of the Legionella pneumophila HEPN–MNT module) (from UniProt Q5ZRG2 1-139) (natural protein)
stoichiometry N [1]: 4
stoichiometry N [2]: 2 and 4

MNT^Lpg (MNT antitoxin of the Legionella pneumophila HEPN–MNT module) (from UniProt Q5ZRG1 1-108) (enzyme)
stoichiometry N (MNT^Lpg per HEPN^Lpg chain (1:4)) [1]: 0.25
